B1: FAM189A2 (parent)
chain: PRCDLVDLGEGKICFCCEEFQPAK

Variants of: B1
Assay: protein stability index of a GFP-peptide fusion (GPS, HEK-293T) (PSI 1-6); higher = more stable
Conditions: c terminus: a fixed tail appended
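Note: lentivirally expressed fusions sorted by FACS into six bins by GFP to DsRed ratio, PSI derived from sequencing read proportions per bin multiplied by bin number.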

Row | Variant | protein stability index
1 | C14I | 2.39
2 | C14G | 3.56
3 | C14H | 3.48
4 | C14Q | 3.79
5 | C14A | 3.62
6 | C14L | 3.15
7 | C14N | 4.56
8 | C14E | 4.24
9 | C14V | 3.06
10 | C14D | 4.07
11 | C14T | 3.47
12 | C14R | 3.51
13 | C14W | 2.51
14 | C14F | 2.16
15 | C14S | 3.3
16 | C14M | 2.87
17 | C14P | 3.94
18 | C14Y | 2.46
19 | C14K | 3.94
20 | G9I | 2.24
21 | G9P | 2.99
22 | G9Q | 2.33
23 | G9D | 3.18
24 | G9N | 2.28

Row | Variant | protein stability index
25 | G9K | 2.96
26 | G9F | 1.77
27 | G9Y | 2.94
28 | G9V | 2.52
29 | G9M | 2.04
30 | G9A | 2.9
31 | G9R | 2.14
32 | G9S | 2.77
33 | G9W | 2.08
34 | G9H | 3.06
35 | G9T | 2.83
36 | G9E | 2.86
37 | G9L | 2.21
38 | G9C | 2.91
39 | L8S | 3.97
40 | L8Y | 2.21
41 | L8Q | 4.32
42 | L8I | 3.13
43 | L8M | 3.74
44 | L8H | 3.98
45 | L8K | 3.41
46 | L8W | 3.23
47 | L8F | 3.46
48 | L8G | 4.48

Row | Variant | protein stability index
49 | L8N | 3.73
50 | L8P | 3.58
51 | L8V | 2.97
52 | L8T | 3.92
53 | L8R | 3.91
54 | C16G | 3.44
55 | C16Y | 2.22
56 | C16S | 3.28
57 | C16A | 3.45
58 | C16D | 3.88
59 | C16L | 2.71
60 | C16Q | 3.89
61 | C16I | 2.09
62 | C16R | 3.13
63 | C16N | 3.93
64 | C16E | 3.64
65 | C16P | 4.24
66 | C16W | 2.1
67 | C16T | 3.05
68 | C16F | 2.66
69 | C16H | 4.23
70 | C16K | 3.76
71 | C16M | 3.07
72 | C16V | 2.85

Row | Variant | protein stability index
73 | I13C | 3.38
74 | I13P | 3.41
75 | I13D | 4.28
76 | I13F | 3.02
77 | I13T | 3.1
78 | I13G | 3.55
79 | I13A | 3.01
80 | I13V | 2.86
81 | I13Y | 2.3
82 | I13Q | 3.27
83 | I13M | 4.02
84 | I13L | 2.72
85 | I13N | 3.78
86 | I13K | 3.71
87 | I13H | 3.89
88 | I13W | 2.11
89 | I13E | 3.73
90 | I13R | 3.44
91 | I13S | 3.57
92 | E10W | 1.85
93 | E10D | 3
94 | E10Y | 2.29
95 | E10L | 2.08
96 | E10A | 2.56

Row | Variant | protein stability index
97 | E10R | 2.54
98 | E10H | 2.88
99 | E10K | 2.82
100 | E10Q | 2.73
101 | E10N | 2.65
102 | E10M | 2.01
103 | E10G | 3
104 | E10S | 2.36
105 | E10P | 2.88
106 | E10V | 2.26
107 | E10F | 2.35
108 | E10I | 2.08
109 | E10T | 2.75
110 | E10C | 2.63
111 | F15D | 4.74
112 | F15T | 4.07
113 | F15R | 3.33
114 | F15M | 2.8
115 | F15P | 3.55
116 | F15G | 3.79
117 | F15C | 3.86
118 | F15N | 4.66
119 | F15V | 3.43
120 | F15Q | 4.13

Row | Variant | protein stability index
121 | F15I | 2.38
122 | F15H | 3.77
123 | F15E | 4.19
124 | F15L | 3.39
125 | F15Y | 2.81
126 | F15A | 3.94
127 | F15W | 3.04
128 | F15K | 4.07
129 | F15S | 4.47
130 | G11V | 1.05
131 | G11Y | 2.52
132 | G11R | 2.55
133 | G11D | 3.28
134 | G11Q | 2.98
135 | G11P | 2.52
136 | G11E | 3.44
137 | G11C | 2.45
138 | G11T | 2.64
139 | G11A | 2.63
140 | G11M | 2.21
141 | G11I | 1.86
142 | G11H | 2.81
143 | G11L | 1.95
144 | G11F | 1.51

Row | Variant | protein stability index
145 | G11K | 2.4
146 | G11S | 2.8
147 | G11W | 2.69
148 | G11N | 3.33
149 | K12F | 2.85
150 | K12S | 3.38
151 | K12E | 3.6
152 | K12N | 2.7
153 | K12Q | 3.89
154 | K12W | 2.32
155 | K12L | 2.42
156 | K12Y | 2.42
157 | K12G | 2.21
158 | K12V | 2.35
159 | K12P | 3.25
160 | K12T | 2.63
161 | K12I | 2.46
162 | K12D | 3.4
163 | K12C | 3.45
164 | K12A | 3.51
165 | K12H | 4.16
166 | K12M | 2.04
167 | K12R | 1.99

Reference: the supplement of paper PMC10567573
